{
  "source": "patent US20200270359A1",
  "about": "(Genmab, published 2020)",
  "binders": {"B1": {"name": "IgG1-004-H5L2 (antibody)", "heavy": "not shown", "light": "AQVLTQSPSPLSASVGDRVTITCQASQSVYNSQNLAWYQQKPGKAPKLLIYEASKLASGVPSRFKGSGSGTEFTLTISSLQPDDFATYYCQGEFSCISADCTAFGGGTKVEIKRTVAAPSVFIFPPSDEQLKSGTASVVCLLNNFYPREAKVQWKVDNALQSGNSQESVTEQDSKDSTYSLSSTLTLSKADYEKHKVYACEVTHQGLSSPVTKSFNRGEC"}, "B2": {"name": "IgG1-004-H5L2-E430G (antibody)", "heavy": "not shown", "light": "B1 light", "notes": "IgG1,kappa with E430G (EU numbering)"}, "B3": {"name": "IgG1-G28.1 (antibody)", "heavy": "not shown", "light": "DIQMTQSPASLSASVGETVTITCRTSENVYSYLAWYQQKQGKSPQLLVSFAKTLAEGVPSRFSGSGSGTQFSLKISSLQPEDSGSYFCQHHSDNPWTFGGGTELEIKRTVAAPSVFIFPPSDEQLKSGTASVVCLLNNFYPREAKVQWKVDNALQSGNSQESVTEQDSKDSTYSLSSTLTLSKADYEKHKVYACEVTHQGLSSPVTKSFNRGEC", "notes": "IgG1,kappa"}, "B4": {"name": "IgG1-G28.1-E430G (antibody)", "heavy": "not shown", "light": "B3 light", "notes": "as for B2"}, "B5": {"name": "IgG1-37.3 (antibody)", "heavy": "not shown", "light": "DIQMTQSPASLSVSVGETVTITCRASENIRSNLAWYQQKQGKSPQLLVNVATNLADGVPSRFSGSGSGTQYSLKINSLQSEDFGTYYCQHYWGTTWTFGGGTKLEIKRTVAAPSVFIFPPSDEQLKSGTASVVCLLNNFYPREAKVQWKVDNALQSGNSQESVTEQDSKDSTYSLSSTLTLSKADYEKHKVYACEVTHQGLSSPVTKSFNRGEC", "notes": "IgG1,kappa"}, "B6": {"name": "IgG1-37.3-E430G (antibody)", "heavy": "not shown", "light": "B5 light", "notes": "as for B2"}, "B7": {"name": "IgG1-016-H5L2-E430G (antibody)", "heavy": "not shown", "light": "DVVMTQSPSTLSASVGDRVTITCQASQNIDSNLAWYQQKPGKAPKFLIYYASNLPFGVPSRFKGSGSGTEFTLTISSLQPDDFATYYCQCADVGSTYVAAFGGGTKVEIKRTVAAPSVFIFPPSDEQLKSGTASVVCLLNNFYPREAKVQWKVDNALQSGNSQESVTEQDSKDSTYSLSSTLTLSKADYEKHKVYACEVTHQGLSSPVTKSFNRGEC", "notes": "as for B2"}, "B8": {"name": "IgG1-016-H5L2 (antibody)", "heavy": "not shown", "light": "B7 light", "notes": "Humanized, IgG1,kappa"}, "B9": {"name": "IgG1-016-H5L2-F405L-E430G (antibody)", "heavy": "not shown", "light": "B7 light", "notes": "IgG1,kappa with F405L and E430G (EU numbering)"}, "B10": {"name": "IgG1-016-H5L2-LC90S-F405L-E430G (antibody, V domains shown)", "VH": "EVQLVESGGGLVQPGGSLRLSCAASGFSLSNYNMGWVRQAPGKGLEWVSVIDASGTTYYATWAKGRFTISRDNSKNTLYLQMNSLRAEDTATYYCARELLYFGSSYYDLWGQGTLVTVSS", "VL": "DVVMTQSPSTLSASVGDRVTITCQASQNIDSNLAWYQQKPGKAPKFLIYYASNLPFGVPSRFKGSGSGTEFTLTISSLQPDDFATYYCQSADVGSTYVAAFGGGTKVEIKR", "notes": "IgG1,kappa; light chain C90S, heavy chain F405L and E430G (EU numbering)"}, "B11": {"name": "IgG1-005-H1L2-E430G (antibody)", "heavy": "not shown", "light": "AYDMTQSPSSVSASVGDRVTITCQASQSISNWLAWYQQKPGKAPKQLIYAASTLASGVPSRFKGSGSGTDFTLTISSLQPEDFATYYCQQGYSNSNIDNTFGGGTKVEIKRTVAAPSVFIFPPSDEQLKSGTASVVCLLNNFYPREAKVQWKVDNALQSGNSQESVTEQDSKDSTYSLSSTLTLSKADYEKHKVYACEVTHQGLSSPVTKSFNRGEC", "notes": "as for B2"}, "B12": {"name": "IgG1-005-H1L2 (antibody)", "heavy": "not shown", "light": "B11 light", "notes": "Humanized, IgG1,kappa"}, "B13": {"name": "IgG1-010-H5L2 (antibody)", "heavy": "not shown", "light": "AYDMTQSPSTLSASVGDRVTITCQASQNIIDYLAWYQQKPGKAPKLLIHKASTLASGVPSRFKGSGSGTEFTLTISSLQPDDFATYYCQQGYSNSNIDNTFGGGTKVEIKRTVAAPSVFIFPPSDEQLKSGTASVVCLLNNFYPREAKVQWKVDNALQSGNSQESVTEQDSKDSTYSLSSTLTLSKADYEKHKVYACEVTHQGLSSPVTKSFNRGEC", "notes": "Humanized, IgG1,kappa"}, "B14": {"name": "IgG1-010-H5L2-E430G (antibody)", "heavy": "not shown", "light": "B13 light", "notes": "as for B2"}, "B15": {"name": "bsIgG1-016-H5L2-LC90S-F405L-E430Gx010-H5L2-K409R-E430G (bispecific antibody)", "heavy 1": "not shown", "light 1": "B7 light with C90S", "heavy 2": "not shown", "light 2": "B13 light"}},
  "key": {"[1]": {"biological_target": "T1, human (Homo sapiens) CD37 (human (Homo sapiens), UniProt P11049 1-281)", "T1 construct": "Full-length protein on cells: endogenous on Daudi cells, Raji cells and B cells in human blood; also called Leukocyte Antigen CD37; GP52-40", "T1 sequence": "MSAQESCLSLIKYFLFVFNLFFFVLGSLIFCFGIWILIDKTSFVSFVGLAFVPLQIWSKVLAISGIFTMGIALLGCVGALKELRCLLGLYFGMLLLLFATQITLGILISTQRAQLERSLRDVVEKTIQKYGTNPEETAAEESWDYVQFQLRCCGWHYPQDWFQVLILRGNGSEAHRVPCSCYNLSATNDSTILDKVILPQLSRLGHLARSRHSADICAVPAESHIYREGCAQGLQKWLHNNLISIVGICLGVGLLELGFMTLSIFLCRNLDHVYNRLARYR", "test": "flow cytometry on Daudi cells", "description": "(§1) Binding to cell surface expressed CD37 (Daudi cells, CHO cells expressing cynomolgus CD37) was determined by flow cytometry. Cells, resuspended in RPMI containing 0.2% BSA, were seeded at 100,000 cells/well in polystyrene 96 well round-bottom plates (Greiner bio-one Cat #650101) and centrifuged for 3 minutes at 300×g, 4° C. Serial dilutions (0.003-10 μg/mL final antibody concentration in 3.33× serial dilutions) of CD37 or control antibodies were added and cells were incubated for 30 minutes at 4° C. Plates were washed/centrifuged twice using FACS buffer (PBS/0.1% BSA/0.01% Na-Azide). Next, cells were incubated for 30 minutes at 4° C. with R-Phycoerythrin (PE)-conjugated goat-anti-human IgG F(ab′)2 (Jackson ImmunoResearch Laboratories, Inc., West Grove, Pa.; cat #: 109-116-098) diluted 1/100 in PBS/0.1% BSA/0.01% Na-Azide. Cells were washed/centrifuged twice using FACS buffer, resuspended in 30 μL FACS buffer and analyzed by determining mean fluorescent intensities using an Intellicyt iQue™ screener (Westburg). Binding curves were generated using non-linear regression (sigmoidal dose-response with variable slope) analyses within GraphPad Prism V6.04 software (GraphPad Software, Sand Diego, Calif., USA)."}, "[2]": {"biological_target": "T2, cynomolgus monkey (Macaca fascicularis) CD37 (cynomolgus monkey (Macaca fascicularis), UniProt P11049 1-281 (human entry))", "T2 construct": "also called mfCD37; Cynomolgus CD37", "T2 chain": "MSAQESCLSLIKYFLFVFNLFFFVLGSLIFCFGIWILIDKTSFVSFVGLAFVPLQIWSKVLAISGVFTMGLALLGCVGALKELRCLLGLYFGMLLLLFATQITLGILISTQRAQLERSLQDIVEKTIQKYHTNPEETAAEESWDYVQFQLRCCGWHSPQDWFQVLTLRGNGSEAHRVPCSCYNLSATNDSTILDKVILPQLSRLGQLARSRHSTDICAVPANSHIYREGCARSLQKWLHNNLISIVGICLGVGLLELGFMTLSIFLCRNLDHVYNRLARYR", "test": "flow cytometry on CHO cells expressing cynomolgus monkey CD37", "description": "as §1\nBinding to CHO cells expressing cynomolgus monkey CD37 was determined by flow cytometry using a method as described above."}, "[3]": {"biological_target": "T1, human (Homo sapiens) CD37", "test": "flow cytometry, A488-labeled antibody on B cells in human whole blood; average of 6 donors", "description": "(§2) Cells were pelleted and washed twice in 150 μL FACS buffer and resuspended in 150 μL TO-PRO-3 (end concentration 0.2 μM; Molecular Probes, cat no. T3605). Samples were measured by flow cytometry using an LSRFortessa flow cytometer. Binding is expressed as geometric mean of A488 fluorescence intensity for viable TO-PRO-3⁻/CD14⁻/CD19⁺ B-cells (human) or viable TO-PRO-3⁻/CD14⁻/CD19+/CD20+ B-cells (cynomolgus monkey). Log-transformed data were analyzed using best-fit values of a non-linear dose-response fit in GraphPad PRISM."}, "[4]": {"biological_target": "T2, cynomolgus monkey (Macaca fascicularis) …", "test": "flow cytometry, A488-labeled antibody on B cells in cynomolgus monkey whole blood; average of 4 animals", "description": "as §2"}},
  "note": "Where a chain is given by its changes, count along the chain named. Names and notes keep the numbering of the source.",
  "data": [
    {"binder": "B1", "values": [
      {"measurement": "binding result", "setting": "[1]", "result": "binds"}
    ]},
    {"binder": "B2", "values": [
      {"measurement": "binding result", "setting": "[1]", "result": "binds"},
      {"measurement": "binding result", "setting": "[2]", "result": "binds"}
    ]},
    {"binder": "B3", "values": [
      {"measurement": "binding result", "setting": "[1]", "result": "binds"},
      {"measurement": "binding result", "setting": "[2]", "result": "no binding (tested: 0.003-10 µg/mL)"}
    ]},
    {"binder": "B4", "values": [
      {"measurement": "binding result", "setting": "[1]", "result": "binds"},
      {"measurement": "binding result", "setting": "[2]", "result": "no binding (tested: 0.003-10 µg/mL)"}
    ]},
    {"binder": "B5", "values": [
      {"measurement": "binding result", "setting": "[1]", "result": "binds"}
    ]},
    {"binder": "B6", "values": [
      {"measurement": "binding result", "setting": "[1]", "result": "binds"}
    ]},
    {"binder": "B7", "values": [
      {"measurement": "binding result", "setting": "[1]", "result": "binds"},
      {"measurement": "binding result", "setting": "[2]", "result": "binds"}
    ]},
    {"binder": "B8", "values": [
      {"measurement": "binding result", "setting": "[1]", "result": "binds"}
    ]},
    {"binder": "B9", "values": [
      {"measurement": "binding result", "setting": "[1]", "result": "binds"}
    ]},
    {"binder": "B10", "values": [
      {"measurement": "binding result", "setting": "[1]", "result": "binds"}
    ]},
    {"binder": "B11", "values": [
      {"measurement": "binding result", "setting": "[1]", "result": "binds"},
      {"measurement": "binding result", "setting": "[2]", "result": "binds"}
    ]},
    {"binder": "B12", "values": [
      {"measurement": "binding result", "setting": "[1]", "result": "binds"}
    ]},
    {"binder": "B13", "values": [
      {"measurement": "binding result", "setting": "[1]", "result": "binds"}
    ]},
    {"binder": "B14", "values": [
      {"measurement": "binding result", "setting": "[1]", "result": "binds"},
      {"measurement": "binding result", "setting": "[2]", "result": "binds"}
    ]},
    {"binder": "B15", "values": [
      {"measurement": "EC50", "setting": "[3]", "result": 0.85, "unit": "µg/mL"},
      {"measurement": "EC50", "setting": "[4]", "result": 0.63, "unit": "µg/mL"}
    ]}
  ]
}
